From US20230181528A1, “COMPOSITIONS AND METHODS FOR TREATING NEOPLASIA” (The Broad Institute, Inc., priority 2020, published 2023) come the findings set out here.

In data set [1] the test system is VPS4 ATPase activity. Description: In vitro assay of ATPase activity of recombinant VPS4A and VPS4B constructs. The note with it: for fold change in turnover number between VPS4A and VPS4B construct with the same tag: VPS4B construct vs VPS4A construct; for Turnover (preliminary turnover number): recombinant tagged constructs, ATPase activity. It counts as biochemical. An excerpt:
Active oligomers of VPS4A and VPS4B were achieved through recombinant production and an in vitro assay was used to measure ATPas activity. […] Hcp1 (also known as His6 tag (SEQ ID NO: 32)) and FL (also known as FLAG tag) were used.

Data set [2] deals with PANC0403 pancreatic cancer cell line (VPS4B^loss). Description: Interferon dose-response curves with VPS4A suppression (CellTiter-Glo). It counts as cell-based, human. The note with it: PANC0403 shVPS4A-2, co-treatment with 1 μM doxycycline, interferon titration for last 3 days. The procedure: (§1) To determine whether interferon treatment cooperate with VPS4A suppression, pancreatic cancer cell lines (KP4, PANC0403 and SNU213) stably expressing the doxycycline-inducible RNAi system against VPS4A (shVPS4A-2) were plated in white-walled 96-well plates at 100˜400 cells per well in 100 μL of 10% FBS-supplemented RPMI-1640 with L-glutamine with or without 1 μM doxycycline. Plates were incubated at 37° C., 5% CO2 for 3 days. […] At the same time, the doxycycline was refreshed. Cells were then incubated for an additional 3 days at 37° C., 5% CO2. Afterwards, 100 μL of premixed CellTiter-Glo (Promega) reagent was added to the wells to lyse cells by shaking the plates at 500 RPM for 10 minutes at room temperature. Luminescence for each well was then measured using an Envision plate reader (Perkin Elmer) to measure cell viability using the ATP-based readout. Luminescence signal for each well was normalized to the average signal from 6 wells treated without interferon for each cell line. These normalized values were then visualized using GraphPad Prism 8.3.0 fitted with a four-parameter log-based non-linear dose-response curve.
In general terms: Cellular ATP, detected with luciferase, serves as a proxy for viable cell number.

In data set [3] the test system is SNU213 pancreatic cancer cell line (VPS4B^loss). The description is as above. It counts as cell-based, human. The note with it: SNU213 shVPS4A-2, co-treatment with 1 μM doxycycline, interferon titration for last 3 days. Here is the method: as §1
In data set [4] the test system is VPS4B^neutral cell lines. Description: CRISPR-based cell viability assay with CellTiter-Glo (sgRNAs targeting VPS4A). Also noted: species or system human. The settings on record: YAPC; seven-day CellTiter-Glo; scale 0 (cutting controls) to −1 (pan-essential sgRNAs); read from FIG. 2A. The procedure:
For FIG. 2A, CellTiter-Glo viability assays were performed with stably expressing SpCas9 cell lines in 96 well plates. Cells were seeded and infected with sgRNA expressing lentivirus in wells on day 0, and selected with puromycin 24 hours later. Cell titer-Glo viability was read out 7 days after plating and infection. Prior to CellTiter-Glo viability assays, all cell lines were individually optimized for the assay including titrating both cell seeding density and volume of virus used for infection. All lentiviral preps for each sgRNA described below were batch controlled and titrated on three different cell lines representing cell lines with low, medium and high transduction efficiency. Optimal cell seeding densities and viral volumes for infections were then used for all subsequent viability assays using CRISPR. […]
Each assay was required to meet specific quality control metrics. […] For quality control of raw luminescence from CellTiter-Glo, infection efficiency (puro/no puro selection for each sgRNA) was required to be at least 80%, and all replicate wells had to be within 2 standard deviations of the mean for that sgRNA infection. […] SpCas9 activity from each cell line was also required to be greater than 50%, determined by the percent viability reduction of the average of the 3 pan-essential genes (sgPOLR2D, sgSF3B1 and sgKIF11) to negative controls (sgLacZ, sgChr2 and sgAAVS1). […]

“VPS4B-FL: recombinant VPS4B construct with FL (FLAG) tag”: in data set [1], the “fold change in turnover number between VPS4A and VPS4B construct with the same tag” value is over 1 fold; the “Turnover (preliminary turnover number)” value was 21 s⁻¹.

For the molecule “VPS4B-Hcp1: recombinant VPS4B construct with Hcp1 tag”, in data set [1], the “fold change in turnover number between VPS4A and VPS4B construct with the same tag” value is listed as over 600 fold; the “Turnover (preliminary turnover number)” value was determined as 33280 s⁻¹.

For “interferon-γ: purified recombinant human interferon-γ (PeproTech)”, the “sensitization to VPS4A suppression (6-day cell viability)” value in data set [2] and in data set [3] was “strongly sensitized” each time.

For “sgVPS4A2: sgRNA targeting VPS4A intron/exon junction, 5′-GGGCCGCACGAAGTACCTGG (SEQ ID NO: 40) (listed as DNA, chemistry not given here)”, in data set [4], the “VPS4A dependency score (normalized viability effect)” value is 0.3-0.4.

Turning to “sgVPS4A3: sgRNA targeting VPS4A intron/exon junction, 5′-ATTGTTATTCCCCACCCCTG (SEQ ID NO: 41) (listed as DNA, chemistry not given here)”, the “VPS4A dependency score (normalized viability effect)” value in data set [4] is on record as 0.25-0.35.

B1: VPS4A-Hcp1: recombinant VPS4A construct with Hcp1 tag (protein, UniProt Q9UN37 1-437, looked up)
Vacuolar protein …: MTTSTLQKAIDLVTKATEEDKAKNYEEALRLYQHAVEYFLHAIKYEAHSDKAKESIRAKCVQYLDRAEKLKDYLRSKEKHGKKPVKENQSEGKGSDSDSEGDNPEKKKLQEQLMGAVVMEKPNIRWNDVAGLEGAKEALKEAVILPIKFPHLFTGKRTPWRGILLFGPPGTGKSYLAKAVATEANNSTFFSVSSSDLMSKWLGESEKLVKNLFELARQHKPSIIFIDEVDSLCGSRNENESEAARRIKTEFLVQMQGVGNNNDGTLVLGATNIPWVLDSAIRRRFEKRIYIPLPEEAARAQMFRLHLGSTPHNLTDANIHELARKTEGYSGADISIIVRDSLMQPVRKVQSATHFKKVCGPSRTNPSMMIDDLLTPCSPGDPGAMEMTWMDVPGDKLLEPVVCMSDMLRSLATTRPTVNADDLLKVKKFSEDFGQES
modifications: Hcp1 tag
In the case of B1, in data set [1], the “Turnover (preliminary turnover number)” value is 53 s⁻¹.

B2: VPS4A-FL: recombinant VPS4A construct with FL (FLAG) tag (protein, UniProt Q9UN37 1-437, looked up)
Vacuolar protein …: MTTSTLQKAIDLVTKATEEDKAKNYEEALRLYQHAVEYFLHAIKYEAHSDKAKESIRAKCVQYLDRAEKLKDYLRSKEKHGKKPVKENQSEGKGSDSDSEGDNPEKKKLQEQLMGAVVMEKPNIRWNDVAGLEGAKEALKEAVILPIKFPHLFTGKRTPWRGILLFGPPGTGKSYLAKAVATEANNSTFFSVSSSDLMSKWLGESEKLVKNLFELARQHKPSIIFIDEVDSLCGSRNENESEAARRIKTEFLVQMQGVGNNNDGTLVLGATNIPWVLDSAIRRRFEKRIYIPLPEEAARAQMFRLHLGSTPHNLTDANIHELARKTEGYSGADISIIVRDSLMQPVRKVQSATHFKKVCGPSRTNPSMMIDDLLTPCSPGDPGAMEMTWMDVPGDKLLEPVVCMSDMLRSLATTRPTVNADDLLKVKKFSEDFGQES
modifications: FLAG tag
For B2, in data set [1], the “Turnover (preliminary turnover number)” value was 10 s⁻¹.
